Legend:
[1] = test system: CSN6, soluble MPN domain construct of Example 2
Nedd8-AMC = Nedd8-AMC (UniProt Q15843)
Chain of Nedd8-AMC (Q15843 whole entry, looked up): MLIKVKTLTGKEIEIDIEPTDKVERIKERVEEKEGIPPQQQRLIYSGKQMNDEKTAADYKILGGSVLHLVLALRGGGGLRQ

Chain of CSN6, soluble MPN domain construct of Example 2 (chain, as listed by the source): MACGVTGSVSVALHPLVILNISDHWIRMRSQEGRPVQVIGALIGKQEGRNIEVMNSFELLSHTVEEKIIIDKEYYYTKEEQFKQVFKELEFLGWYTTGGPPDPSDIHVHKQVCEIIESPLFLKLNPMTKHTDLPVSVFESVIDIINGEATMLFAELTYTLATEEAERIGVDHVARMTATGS
Chain of GST-CSN51-257 wild type (GST-tagged human CSN5 residues 1-257) (chain, as listed by the source): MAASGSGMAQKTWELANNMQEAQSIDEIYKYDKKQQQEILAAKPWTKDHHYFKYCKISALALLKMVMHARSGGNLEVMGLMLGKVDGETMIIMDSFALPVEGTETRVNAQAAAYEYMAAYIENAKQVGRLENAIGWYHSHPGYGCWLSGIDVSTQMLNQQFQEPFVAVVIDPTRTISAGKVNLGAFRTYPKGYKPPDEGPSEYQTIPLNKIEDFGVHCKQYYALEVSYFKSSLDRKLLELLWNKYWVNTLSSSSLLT
Chain of GST-CSN51-257 R106T (GST-tagged human CSN5 residues 1-257 with Arg106 substituted by threonine) (chain, as listed by the source R106T): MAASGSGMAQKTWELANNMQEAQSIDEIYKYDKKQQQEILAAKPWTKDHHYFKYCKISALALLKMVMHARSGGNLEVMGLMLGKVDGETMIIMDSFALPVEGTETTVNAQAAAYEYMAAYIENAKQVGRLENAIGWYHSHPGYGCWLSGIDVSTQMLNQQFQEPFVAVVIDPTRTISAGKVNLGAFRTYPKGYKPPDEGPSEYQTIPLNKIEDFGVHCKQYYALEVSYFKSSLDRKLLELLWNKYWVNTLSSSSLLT
Chain of CSN5 R106T, activatory mutant form, construct of Example 2 (chain, as listed by the source R106T): as above
Chain of CSN51-257 R106T (human CSN5 residues 1-257 with Arg106 substituted by threonine) (chain, as listed by the source R106T): as above

CSN5 WT, soluble MPN domain construct of Example 2
CSN5 isopeptidase activity (substrates LRGG-AMC, Nedd8-AMC, Nedd8-cullin 1) [1]: CSN6 is able to significantly enhance CSN5 isopeptidase activity

CSN51-257 wild type (human CSN5 residues 1-257, GST tag cleaved off)
isopeptidase activity (hydrolysis of Nedd8-AMC, fluorescence) (Nedd8-AMC): the CSN51-257 WT form is void of isopeptidase activity

CSN5 R106T, activatory mutant form, construct of Example 2
CSN5 isopeptidase activity (substrates LRGG-AMC, Nedd8-AMC, Nedd8-cullin 1) [1]: this effect is consistently more marked in the context of the activatory mutant form of CSN5, CSN5 R106T than the WT form

GST-CSN51-257 wild type (GST-tagged human CSN5 residues 1-257)
isopeptidase activity (hydrolysis of LRGG-AMC, fluorescence) (LRGG-AMC): the CSN51-257 WT form is void of isopeptidase activity

CSN51-257 R106T (human CSN5 residues 1-257 with Arg106 substituted by threonine)
isopeptidase activity (hydrolysis of Nedd8-AMC, fluorescence) (Nedd8-AMC): the R106T substitution is sufficient to restore constitutive isopeptidase activity against two isopeptidase substrates, LRGG-AMC and Nedd8-AMC

GST-CSN51-257 R106T (GST-tagged human CSN5 residues 1-257 with Arg106 substituted by threonine)
isopeptidase activity (hydrolysis of LRGG-AMC, fluorescence) (LRGG-AMC): the R106T substitution is sufficient to restore constitutive isopeptidase activity against two isopeptidase substrates, LRGG-AMC and Nedd8-AMC

— patent US20160083712
